Results: paper PMC12315504 (The FASEB Journal, 2021)
Read-outs that look alike come from different tables or passages of the source.

B1: Fgf15 (wild-type, mouse), in Hek293T conditioned medium (ligand, UniProt O35622 26-218, looked up)
chain: RPLAQQSQSVSDEDPLFLYGWGKITRLQYLYSAGPYVSNCFLRIRSDGSVDCEEDQNERNLLEFRAVALKTIAIKDVSSVRYLCMSADGKIYGLIRYSEEDCTFREEMDCLGYNQYRSMKHHLHIIFIQAKPREQLQDQKPSNFIPVFHRSFFETGDQLRSKMFSLPLESDSMDPFRMVEDVDHLVKSPSFQK
B2: Fgf15 (wild-type, mouse), in serum of mice after hydrodynamic delivery of the plasmid (ligand, UniProt O35622 26-218, looked up)
chain: B1 chain

Tests used:
[1] = biological target: the molecule itself; assay: non-reducing SDS-PAGE
[2] = biological target: the molecule itself; assay: non-reducing SDS-PAGE; remark: listed apart in the source

Row | Protein | stoichiometry N [1] | stoichiometry N [2]
1 | B1 | 2 | 
2 | B2 |  | 2
